Experimental data published in the DeepSol protein solubility set.

Assay: soluble on expression in E. coli; label from the status in PepcDB or PDB records

Soluble on expression in E. coli, soluble:
MSATTTNLKEAIVNRRSIRKVTKNDAITKERIEEVLKTALHAPTSFNMQSGRMVVLMDGEHEKFWDIVKETLRARVPAENFEATVERLKGFHAGVGTVLFFEDQATVEKMQENAPLYKDQFPFWSHQGNAMLQHTVWMLLSAEGIGASLQHYNPIVDAEVKETWNIPAEWSLVGQMPFGEPNEQPAERTFLPTEDVVKFY
MSLRMNAMKIISVNVGQPTALQVGQRTAVSGIRKHPVPGRVQVGEKGLEGDHVLNRRYHGGPDQAVYVYTREDYDHWTELLGRALEPGAFGENVLISGAESAEVRVGERFLLGAVEIEVTAPRLPCSTLGARMEDAGFVKRFKAARRPGFYARVLQSGDIGRGDPVTRTPAPDGAPTIGELFDADFAKSHDPAELRAWLTFPLGKRQRKEVEKWLAKAEGEGHHHHHH
GIDPFTHMATFISVQLKKTSEVDLAKPLVKFIQQTYPSGGEEQAQYCRAAEELSKLRRAAVGRPLDKHEGALETLLRYYDQICSIEPKFPFSENQICLTFTWKDAFDKGSLFGGSVKLALASLGYEKSCVLFNCAALASQIAAEQNLDNDEGLKIAAKHYQFASGAFLHIKETVLSALSREPTVDISPDTVGTLSLIMLAQAQEVFFLKATRDKMKDAIIAKLANQAADYFGDAFKQCQYKDTLPKEVFPVLAAKHCIMQANAEYHQSILAKQQYYFGEEIARLQHAAELIKTVASRYDEYVNVKDFSDKINRALAAAKKDNDFIYHDRVPDLKDLDPIGKATLVKSTPVNVPISQKFTDLFEKMVPVSVQQSLAAYNQRKADLVNRSIAQMREATTLANGVLASLNLPAAIEDVSGDTVPQSILTKSRSVIEQGGIQTVDQLIKELPELLQRNREILDESLRLLDEEEATDNDLRAKFKERWQRTPSNELYKPLRAEGTNFRTVLDKAVQADGQVKECYQSHRDTIVLLCKPEPELNAAIPSANPAKTMQGSEVVNVLKSLLSNLDEVKKEREGLENDLKSVNFDMTSKFLTALAQDGVINEEALSVTELDRVYGGLTTKVQESLKKQEGLLKNIQVSHQEFSKMKQSNNEANLREEVLKNLATAYDNFVELVANLKEGTKFYNELTEILVRFQNKCSDIVFAR
GEYKMMMARVAALPEDYQFVFKKIQNYMWNFSAGNGMDMLHIQYELIDLFEAGAAEGRQVLDITGEDVASFADELVANAKTYVSK
SAFQKAASLLGAPIGHDFCVISLSDLMTPWDRIEKRIHAAATADFVTAVYNPKSEGRYWQLYRLKEIFLKERDPETPVGFVRQAGRKEETVTITTLQEFDPEQVDMFTVVLIGNSQSYHQEG
MSLGKEKKVYIFDSILRDGSQAQGVSFSVADKIKIVKKLDELGIDYIEAGNPSSNPKDREFFEEIRSLKLKHSKLCAFGSTRRAGAKAEEDEGIKKLVDSGVNVFSIFGKAWDFHVTDIIKTSIEENLNMIRDSIKYLVSLNKEVVFDAEHFFDGFKSNKEYAIEVLNTARLAGAKWIVLCDTNGGTMPNEVSDIVKYLVRDLNFDNLGVHFHDDSGMAVANSVVAVHYGVNHVQGTFTGVGERCGNANLSNIIANLSLKMGYNTIKNDKLEYLTVAFRYICEACNMTPNERVAYVGNCAFSHKGGMHIDAVRKNPKSFEHIDPSRVGNSRRILVSEVSGRSTILPALKRINPKIDKDSPETKAVVKRIKDLEYLGYQFEGAEGSFELLMRKELNVFRPSFELVEYKVIAERPYLSDLSATAIVKIMVNGKLETTAADGKGPVNALDKALRKALGVFYKELANVYLTDYKVRVISGTKATSAKIRVLIESTDGVSTWTTVGVSYDIIEASWLALVDSVEYKLIQCNKEENNNEKTDDYDTKNTEGHHHHHH
MSLGNASMTKTDIATRVHNHTWKLDPIVRSLIDTDFYKLLMLQMIWKLYPEVDATFSLINRTKTVRLAEEIDEMELREQLDHARTLRLSKKENIWLAGNTFYGRSQIFEPEFLSWLSSYQLPEYELFKRDGQYELNFHGRWMDTTLWEIPALSIINELRSRSAMRSLGYFTLDVLYARAKAKMWEKVERLRELPGLRISDFGTRRRHSFLWQRWCVEALKEGIGPAFTGTSNVLLAMDSDLEAVGTNAHELPMVVAALAQTNEELAAAPYQVLKDWNRLYGGNLLIVLPDAFGTAAFLRNAPEWVADWTGFRPDSAPPIEGGEKIIEWWRKMGRDPRTKMLIFSDGLDVDAIVDTYRHFEGRVRMSFGWGTNLTNDFAGCAPKTIASLKPISIVCKVSDANGRPAVKLSDNPQKATGDPAEVERYLKFFGEEDHKEQKVLVEGHHHHHH
MSLYSTPLKKRIDYDRETFTASASLGGNRLRNRPRDDQNNGKPNLSSRSFLSERKTRKDVLNKYGEAGNTIESELRDVTTHVKISGLTSSEPLQLASEFVQDLSFRDRNTPILDNPDYYSKGLDYNFSDEVGGLGAFTPFQRQQVTNIPDEVLSQVSNTEIKSDMGIFLELNYCWITSDNKLILWNINNSSEYHCIDEIEHTILKVKLVKPSPNTFVSSVENLLIVATLFDIYILTISFNDRTHELNIFNTGLKVNVTGFNVSNIISYERTGQIFFTGATDGVNVWELQYNCSENLFNSKSNKICLTKSNLANLLPTKLIPSIPGGKLIQKVLEGDAGTEEETISQLEVDQSRGVLHTLSTKSIVRSYLITSNGLVGPVLIDAAHIRRGMNALGVKNSPLLSNRAFKIAKIVSISMCENNDLFLAVITTTGVRLYFKGSISRRSIGSLKLDSVKFPPTSISSSLEQNKSFIIGHHPLNTHDTGPLSTQKASSTYINTTCASTIISPGIYFTCVRKRANSGELSKGITNKALLENKEEHKLYVSAPDYGILKNYGKEGHHHHHH
MSLDTFGLIQLAELIYEYCGIDFFKNLSSLESKISERLKELGLSCWEYGGYLRVEPKEWDTLIDLITVNETYFFREENLLEEFQKVILPKYKDRTPNNPLRIWSSACSSGEEPYTLAILSEETGLFETGAVEIIASDIDKKVLEKARRGLYNKKSFSFRTMPKEILDKYFISFGDDYKVKDSIRAMVDFRRVNLLDENKLEKVGEVDIVFCRNVLIYFDTKAINKVINSLYKVLRAGGYLFLGHAETITGMNTGFETIYTPSAFYYRKGERHEGHHHHHH

Soluble on expression in E. coli, not soluble:
MGTWPLTVTKEMEKRKELFRRDPNRALIGAGGYKAADEAIVHDAAIALALGKNVLLKGPTGSGKTRLAETLSALFGQPMHSINCSVDLDAEALLGFKTIVHKNSQAVIEYVPGPVIQAMTKGHLLYIDEINMAKPETLPILNSVLDYRRRLTNPLTGDIVQAKQTFGVIAAINEGYIGTVPLNEALKNRFVVINVPYVQGETLKSVLLAQTTLTDETLIDRFVALSADLLAQVRNGQIAEEAASVRALLDACDLAAYMPPLRAIERSIVDKLDDERERAAVRNIAETWFDE
MGSDKIHHHHHHMQIVACYSNKGGVGKTATAVNLAYAFATSGRRTLLCDLDPQGASGFYFRVKPSKKLTEARFFEDVEHFTKSIRGSDYDNLDILPANMSFRDFDVFLSKMKDARSRLKKALKAVKGDYDIVLLDCPPNISILSENIFRAADAVVTPVIPTTLSQRTFEQLLEFFREHDLPMEKIHAFFSMIQGTKTLHGEMIVELTHNYPKRIMAAKIPFASEIERMGVVRAPVLATAPDSPAGKAYQALFDELLERIVP
MAHHHHHHMAACRSTPLTSSPVACEQAHRQPTIVDRDYEASKYWKSHRCRRIPKATGLTAVLITNPGLSVFTHQPHSRTNTVQGRKSCQGQQTTGRQLQISGNRAVADSVPRSQKNSVTAAWSV
MGSDKIHHHHHHMLDDIKKTLWAAADKLRANVDAAEYKHLVLGLIFLKFVSDTFAARRAELERRFVDVNDDYFLHDADADFIAEELEERDYYIEVNVFWVPEPARWEGLRANAKQANIGKQIDDALDAIEKENPSLKGILDKRYARAPLPDGKLGELVDLISTIGFGEDQSKARDILGQVYEYFLGQFASAEGKKGGQFYTPQSIVNTLVAVLDPHQGKVYDPCCGSGGMFVQSEKFIEAHGGKLGDVSIYGQESNPTTWRLAAMNLAIRGIDFNLGREPGDTFTKNQHSDLRADYILANPPFNISDWWHGSLEGDPRWVYGNPPQGNANYAWLQHMLYHLKPTGRAGIVLANGSMSSSQNTEGDIRRAMVDADVVEVMVALPGQLFFNTQIPACLWFLTKQKTARKGEVLFIDARKLGKMISRVQSELDQAAIDRIANTAKAWRGEDMTGVEGFEDGYQDIPGFCRSVPLSEIAEHGHVLTPGRYVGAEEVEDCDDAFADKMTMLTEKLAEQMAKGAELDQLIRQKLGGLGYEF
MNRLQGMELFVEVARTLSFGRAAENLAIPKSTLSRQVAELERSVGLRLLSRTTRRVELTEAGQLYFERCQRIVAEARIAHEELQNLVETPSGPLRVNMPADFGTDFLSEAFTEFSRRYPEVTFYLDLASPEHAERVFQTCDVSIEIGDLPDSTHIARLLGVLPAHLYASPDYLARHGEPQHPDDLPRHECIQFRAGTGRVTRWPLNSGERHVEITPGNRFSVNSVSMVRNLATLGAGIAILAPMGNVREDIESGRLKRILPDWLAGPFPVYAVTDTRMLPAKTRIFVEFLMERLSNKTLAGQNNPAFLNLR
MYLSRITLHTSELSPAQLLHLVERGEYVMHQWLWDLFPGSKERQFLYRREELQGAFRFFVLSQEQPAASAIFDVQTRPFAPTLSAGQTLRFNLRANPTVCKNGKRHDLLMEAKRQRKTQGDSQDIWSYQQQAALTWLARQGEQNGFTLREASVDAYRQQQIRRGKDRQMIQFSSVDYTGVLVINEPALFLQRLAQGFGKSRAFGCGMMMIKPGDDA
MPQYKLYYFNLRGWAEPARQLFKLAHVEFEDVRIENGTPEWGALKPKTPFGQLPFLSVDGFEIPQSAAILRYLAKKFGYAGKTSEEEAWVDAIVDQFKDFVTPLRQLIMAQRSGNAEEIERIQKEVFAPARDTFFKILNGILEKSKSGFLVGDGVTWADLVIADILTTMEMLGVFDKHGEEQKLAALREKVNEIPEIKEHNSSRPDSVV
MNKFGAEKIFIEKQSGATITHRPIFQEALDFVRAQDIFIVEAIDRLGRNYDEIIDSVNYLKKKNVRLIITSLPIMAEAIGNPLLDKFIKDLIIQILAMIAEQERTESKRRQAQGIKIAKANGVYKGRPKLYSADTKDPQRRLVYKSIVQDLKNGVAISKIAKDYNITRQTIYRIKKEIHELEIN
MSTPSLYEMLTFSFSGELPLEQISERDQLILSVMDNMQRIINCRAGTLAHLPDYGLPDLSLIHQGMAAGIHGLMRQIEETLLRYEPRLSQIQVELLPQPRPGHLNYLIHAQLPDTGWIRFDGVFSPEGRIVLRHLKQQERAY
MKLDFSSGAKPLWSQMANIIKKRIEDGEYEIGCTLPSEMSFADEFNVSRITVRQALNRLMTDGYILRQRGKGTIVKRDKTSFSTRMQSSFKQLQDEYDKTTKTLISVNNVKASEDVAEVFDINPGDNVIMLERSVESKGKIITIYHNYISPKVGASLKDDFTGSFYKYLEMKGFYITSAKEVISAKISTAKDKEVFGFSNDRAMLLKTKYGYSDGVPVEITYGTYIADDYNIVIELV
SRMEQVIVKQGKDALTADAVFVSANPLSDSLLKSTEQLERSVMTRFSTMAFSDNGMQLISVRGVDESYPLMGELVLDGNESGRVKPNQLWLDERIMAQLEVTKGDNVTIGDADFTVSGAVLMEPGLSFNPFQQMPAAYIHQSDVEKTGAIQVGSRVQYRLFLKADNAALKQLQDKTELSPSDRWRTQDTASRSNEVFDRTTQ
MGSDKIHHHHHHRWIPGSRDFDSWLVTLHAQLLAEVDYPRELRMAQVMTEGLAQHEALQSAPVTLRVPHFWPEHCSTNVLTMDYVEGHRAASPEVAALPQSARNELGKAMLQLFFAEVFDLGLVQTDPNFGNYLINDDGTELTLLDFGSVFELDETVRTALCDTIVAGLTNDETRLELALVALGCLKPGAGESAKATFKAFIRNLLEPLRPPEALPPEHLNAEGLYCWGHSELVNRTGQQVARSLTNREFAIPSSDFAMVARKLTGVFTFIAVLDAEFNGHDIAAPYLDEVTAGGET
